Tested on: MS2 coat protein
Experiment: apparent KD of MS2 coat protein; designed switch direction (-1 OFF switch, 1 ON switch): 1; higher = weaker reporter binding
Method in brief: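 Transcription of designed RNA switches on Illumina chips was done by stalled E. coli RNA polymerase. SNAP-549-labelled MS2 coat protein was then titrated in doubling steps from 0.7 or 1.5 nM to 3 µM, with steps of 0.8–1.5 h at the lowest and 10–20 min at the highest concentration. The per-design median over clusters of curve-fitted normalised fluorescence is reported as apparent KD.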

[1] = input ligand: microRNA oligo, concentration not stated
[2] = Eterna round: R95, input ligand: FMN 200 uM
[3] = Eterna round: R95, input ligand: microRNA oligo, concentration not stated
[4] = Eterna round: R95, input ligand: none

| Sequence | apparent KD of MS2 coat protein (input ligand: FMN 200 uM) | apparent KD of MS2 coat protein [1] | apparent KD of MS2 coat protein (input ligand: none) | apparent KD of MS2 coat protein [2] | apparent KD of MS2 coat protein [3] | apparent KD of MS2 coat protein [4] |
| --- | --- | --- | --- | --- | --- | --- |
| UGUACCUUCACAGGAUAUCAUGCGAAAAUUGCGUGAGAAGGGUGAAUACUGUCUUUCUAAGAGUACAUGAGGAUCACCCAUGUA [SameState NG1 #60] (Eterna round: R96, puzzle: Same State NG 1) | 0.05 µM | 0.0561 µM | 0.0737 µM |  |  |  |
| UCGGGCGUACUUGCUGACAUGAGGAUCACCCAUGUCCUUGCGCAGGAUAUGGUUCCGUUUCGGUUCCAGAAGGUCCUGGCUGCU [salish99_SSNG3_r04_319] (Eterna round: R96, puzzle: Same State NG 3) | 0.0305 µM | 0.0195 µM | 0.0332 µM |  |  |  |
| GUUACAUGAGGAUCACCCAUGUAUGUGUGGGAGUAAGUGUCUUAGGAUAUCUAGUAUUUUAUUUAAGAGAAGGAAGAUUGUUGU [JMF's solution 59] (Eterna round: R96, puzzle: Same State NG 3) | 0.13 µM | 0.0937 µM | 0.112 µM |  |  |  |
| AGCUGUGGAAAACUAUAGCAAAAGUAUGUACAUGAGGAUCACCCAUGUCAUGUACAAGCUUUUUGCUCGUCUUAAAA [ak 5 mod of one Eli's designs.] (puzzle: Sensor for hsa-mir-208a) |  |  |  | 0.0424 µM | 0.0187 µM | 0.0904 µM |
| CGUCCAGCCUGAGCUGGACAAAAGCAUGUACAUGAGGAUCACCCAUGUUCAUGUACAAGCUUUUUGCUCGUCUUAUC [salish99_208a_r3_055] (puzzle: Sensor for hsa-mir-208a) |  |  |  | 0.597 µM | 0.0144 µM | 0.587 µM |
| GGUAGGUUACUACCAAACAUGAGGAUCACCCAUGUAAGUGGGAAGGAUAUGGUACCUUUUAGGUACCAGAAGGUCCAUAAAAUU [JL Fiskers NG3ss - 2 mod 7] (Eterna round: R96, puzzle: Same State NG 3) | 0.314 µM | 0.355 µM | 2.09 µM |  |  |  |
| AUCCUAAACACAGGAUAUCCCAGUCAUGAUCUGGGAGAAGGGUGGCCACAUGAGGAUCACCCAUGUGAAGUGCCAGAGGCACGA [MOD3 Xexeraed] (Eterna round: R96, puzzle: Same State NG 1) | 0.397 µM | 0.359 µM | 0.582 µM |  |  |  |
| CUACUACAUGAGGAUCACCCAUGUUGUAGUGAUGCAGGAUAUGUGUGACCAGAAGAUGAAACAGAAGGGCAAAGAA [JR_SS!_Sub002] (puzzle: Same State 1) |  |  |  | 0.0135 µM | 0.0159 µM | 0.0152 µM |
| ACGCAGCUGGGUAAGGAUAUCGGUGGUAAAACAUGAGGAUCACCCAUGUCCGAAGCUCGGACCUCCGAGAAGGUGCCCGGCUGCG [Soinraesar Omei Mod 7] (puzzle: Same State 2) |  |  |  |  | 0.00658 µM |  |
| AAUUAUUAACAUGAGGAUCACCCAUGUAUUAUUAUUAUUAUUAACAAGCUUUUUCAUGUUAUUAGCUCGUCUUAUAA [Bojan's Design 2] (puzzle: Sensor for hsa-mir-208a version 2) |  |  |  | 0.0165 µM | 0.0317 µM | 0.0154 µM |
| UUCCCAUCGGGAGGAUAUGGUGCCUUAUUGGUGCUAGAAGGUCCAACAUGAGGAUCACCCAUGUGGGAGUGGUCUAAUGACCUC [SS NG10LRO06] (Eterna round: R96, puzzle: Same State NG 1) | 0.338 µM | 0.204 µM | 0.355 µM |  |  |  |
| AUUAUUUAUGCAGGAUAUGAUUAACAUGAGGAUCACCCAUGUGGUGUUGUGAGUAAGGAGAGUGAUCAGAAGGGCAUUUUUUGU [JMF's solution 54] (Eterna round: R96, puzzle: Same State NG 2) | 0.713 µM | 0.531 µM | 0.464 µM |  |  |  |
| UUGAAGAAUUAAGGAUAUUGAAUACAUAUGUUUAACAUGAGGAUCACCCAUGUGGGUUGCGGUGUCGAGAAGGUAAAUUACUAG [JL SSNG2 1.50] (Eterna round: R96, puzzle: Same State NG 2) | 0.256 µM | 0.177 µM | 0.207 µM |  |  |  |
| GCGAGUGCCACAGGAUAUUCGGCUGUUUCGCUCGAAGAAGGGUGCCGCAUGCAAUAAAGAAAACAUGAGGAUCACCCAUGUGAA [Uszavege] (Eterna round: R96, puzzle: Same State NG 1) | 0.527 µM | 0.217 µM | 0.418 µM |  |  |  |
| CCGAUAAUUGGAGGAUAUGGAGCCUUAUUGGCUCCAGAAGGCUAUAAACAUGAGGAUCACCCAUGUCGGCGGUCUAAUGACCGA [Eli NG1ss - 50] (Eterna round: R96, puzzle: Same State NG 1) | 0.028 µM | 0.0366 µM | 0.0604 µM |  |  |  |
